This is an account of results in article PMC8769338 (PLoS Pathogens, 2022).

Where “and” joins values, the source holds several entries; their conditions need not be identical. Equal entries are not always repeated.

What all share (conditions): both partners purified
Test [1] concerns the target LC/A2, strep-tag fusion protein (Clostridium botulinum, BoNT/A2 (strain …, UniProt Q45894, strain)). The test can be described thus: ELISA.
Test [2] deals with LC/A1 (light chain protease domain of BoNT/A1), as used in the ELISAs of Table 1 (Clostridium botulinum, BoNT/A1, UniProt P0DPI0). The test can be described thus: ELISA.
For test [3], the target named is T1, LC/B1 (light chain protease domain of BoNT/B1), as used in the ELISAs of Table 2 (Clostridium botulinum, BoNT/B1, UniProt P10844). The test can be described thus: ELISA.
For test [4], the target named is T1, LC/B1 (light chain protease domain of …). The test can be described thus: ELISA; dilution ELISA of VHH on LC/B coated to Nunc plastic.

B1: JPU-C10 (VHH)
VHH: QLQLVESGGGLVQPGGSLRLSCAASGNIFSIYYMGWYRQAPGKQREMVAIINSNGITNYGDFVKGRFTISRDNAENSAYLQMNNLTPEDTAVYYCNAGKLRRTTGWGLDDYWGQGTQVTVSS
notes: form of the ELISAs; source: pET-32 vector, thioredoxin fusion, purified
As for B1, the binding result in test [1] is recorded as “binds”.

B2: JPU-G11 (VHH)
VHH: QLQLVETGGGLVQPGGSLRLACVASESVFEMYTVAWYRQAPGKQRELVAGITDEGRTNYADFVKGRFTISRDNSKKTVHLQMDNLNPEDTAVYYCKLEHDLGYYDYWGQGTQVTVSS
notes: as for B1
Regarding B2, the concentration giving a half-maximal response (EC50) in test [2] is 1 nM and 0.5 nM.

B3: JND-B4 (VHH)
VHH: QVQLVETGGGLVQPGGSLRLSCVASGFTLDSYAIGWFRQAPGKEREGVSCMSSGDGSTYYTNSVKGRFTISRDNAQNTVYLQMNSLKPEDTAVYYCAADGFDYCSAYVPGRGMNYSGKGTLVTVSS
notes: source: pET-32 vector, thioredoxin fusion, purified
As to B3, in test [3], the EC50 is 0.8 nM and 0.5 nM.

B4: BLc-B10 (VHH)
VHH: QLQLVESGGGMVQPGGSLRLSCAASGFTFSTYDMSWVRQAPGKGPEWVSIINAGGGSTYYAASVKGRFAISRDNAKNTLYLQMNNLKPEDTALYYCARVASYYCRGYVCSPPEFDYWGQGTQVTVSS
notes: as for B3
Regarding B4, the concentration giving a half-maximal response (EC50) was 0.3 nM in test [4]; 5 nM and 10 nM in test [3].

B5: JLO-G7 (VHH)
VHH: QVQLVESGGGLVQAGGSLRLSCAASGFPFGSYYMSWVRQAPGKGPEWVSDISNGGIITRYSDSVKGRFTISRDNAKNILYLQMNSLKPEDTALYFCATGTGRDWSREYRGQGTQVTVSS
notes: as for B3
In turn, B5 gave a concentration giving a half-maximal response (EC50) in test [3] of 0.5 nM.

B6: JND-E9 (VHH)
VHH: QVQLVETGGGLVQAGDSLRLSCAASGRTFNYYAMAWFRQAPGKEREFVAFINWSGDSTYYAGSVKGRFTISRDNAKNTVYLQMNNLKPEDTAVYSCAAEFGTFSYLQGDDYSYWGQGTQVTVSS
notes: as for B3
B6: in test [3], the 50% effective concentration (EC50) is 1 nM and 0.5 nM.

B7: JPU-A5 (VHH)
VHH: QVQLVETGGGLVQAGGSLRLSCTASGADFSFYAMGWYRQTPGNSRELVAVMNLNGVISYGDSARGRFDISRDGTKNIVFLQMNSLKPEDTGVYYCNGMRLYTRGSVRHPESWGQGIQVTVSS
notes: as for B1
Take B7: the binding result in test [1] is given as “binds”.

B8: ciA-D1 (VHH)
VHH: QVQLVESGGGLVQPGGSLRLSCATSGFTLEYYAIGWFRQAPGKGREGVACMNSSGGGTNYADSVKGRFTISRDNAKKMVYLQMNSLKSEDTAVYYCVVDDFRCGSRWAAYLRSSWGQGTQVTVSS
notes: as for B3
As to B8, the half-maximal effective concentration (EC50) in test [2] was 1 nM and 0.4 nM.

B9: JND-E5 (VHH)
VHH: QVQLVESGGLVQPGGSLRLSCAASGFTLDYYGIGWVRQAPGKEREEVSCITSGGLTNYPDSVKGRFTISRDNAKNTVYLQMNSLKPEDTAVYYCAIDRVGVCAMEDFGSWGQGTQVTVSS
notes: as for B3
As to B9, the concentration for a half-maximal effect (EC50) in test [3] is 5 nM and 2 nM.
